Results taken from patent US6509447B1, “G protein chimeras and methods of screening compounds” (Glaxo Welcome Inc., priority 1997, dated 2003).

Experiments:
[1] = test system: pheromone response pathway; assay: Chemiluminescent β-galactosidase assay of FUS1-LacZ in MMY9 cells; type: cell-based, Saccharomyces cerevisiae; conditions: GPA1 promoter, mean ±SD, n≧5
Protocol: (§1) Assays for FUS1-IacZ Expression. β-galactosidase activities in cell extracts were measured with two assays. In the first assay (ONPG assay), cell extracts were incubated with the substrate ONPG as described by (37). Units were defined as (A420×1000)/(OD600x×t×v) (25). In the chemiluminescent assay, cells were grown to late logarithmic phase and diluted to 0.02 OD600 in 100 μl SC-WH medium in the presence or absence of 1 μM α-factor in 96-well microtitre plates. After incubation (30° C.; 6 hours), 20 μl of cells were removed and mixed with 20 μl assay mix (125 mM sodium phosphate pH 7.6, 15 mM MgSO4, 200 μM Galacton-Star β-galactosidase substrate (Tropix), 10% (v/v) Sapphire II (Tropix), 1 U/μl oxalyticase (Enzogenetics)). After incubation (30° C.; 1 hr) chemiluminescence was determined in a Top-count scintillation counter (Packard).
A Gpa1/Gαs chimera has been reported to couple the growth hormone releasing hormone receptor (12) when expressed from the strong constitutive promoter of the yeast phosphoglycerate kinase (PGK1) gene. We constructed Gpa1/Gαs and Gpa1/Gαq chimeras similar to those described above (FIG. 5b) and expressed them in MMY9 cells from the promoter of the GPA1 gene. We assayed FUS1-LacZ activity in these cells using a chemiluminescent assay, rather than the ONPG assay described above. […]

[2] = target: T1, purinergic nucleotide receptor, P2Y2 (Homo sapiens, UniProt P41231); assay: Reverse halo assay for FUS1-HIS3 expression, MMY9 cells, P2Y2; type: cell-based; conditions: MMY9 cells with pRS314-GPA1 and P2Y2 receptor, 100 nmol UTP
T1 construct: expressed in transfected cells; host or cells: Saccharomyces cerevisiae strains MMY9 and MMY11, plasmid pDT-PGK-P2Y2
Protocol: Assay for FUS1-HIS3 Expression. Reverse halo assays were carried out by growing MMY9 cells to early stationary phase (OD600≈4) in liquid SC-glucose (2%) medium lacking tryptophan and uracil. A uniform layer of cells (5×10^7) was plated to 22.5 cm by 22.5 cm bioassay dishes (Nunc) in 100 ml SC-glucose agar (1%) equilibrated to 50° C. This medium lacked tryptophan, uracil and histidine, and was supplemented with 10 mM 3-aminotriazole, and buffered to pH 7.0 with 0.1M sodium phosphate. Antibiotic discs were placed on the solidified agar, and a volume of agonist solution (1-5 μl) was applied to each disc. Plates were incubated at 30° C. for 3 days.
The four receptors were: the melatonin ML1B receptor, the serotonin 5HT1A receptor, the somatostatin SST2 receptor and the purinergic nucleotide receptor, P2Y2. […] Activation of the pheromone response pathway was monitored with two integrated reporter genes: […] allowing a growth readout in medium lacking histidine, and FUS1-lacZ allowing a β-galactosidase readout. […] Agonist-dependent activation of FUS1-HIS3 was determined by reverse halo assay in which agonists were applied to the filter discs in the arrangement shown in panel A, in quantities as follows: 3 nmol of somatostatin-14 (S-14); 40 nmol of melatonin (Mel); 3 nmol of α-factor; 100 nmol of UTP; 40 nmol of serotonin (5-HT). […]

[3] = test system: pheromone response pathway (FUS1-LacZ; Ste2p receptor); assay: ONPG β-galactosidase assay of FUS1-LacZ in extracts of MMY9 cells; type: cell-based, Saccharomyces cerevisiae; conditions: G protein expressed from GPA1 promoter
Protocol: as §1
The Gα15/Gα16 subunits are reported to interact with a much broader range of receptors than is typical for a Gα subunit, and have the ability to couple receptors which normally interact with Gαi, Gαs or Gαq (26). […] We constructed a plasmid encoding a Gpa1/Gα16 C-terminal domain chimera (pRS314-Gpa1/Gα16; FIG. 5b); FIG. 6h) derived from the same centromeric vector as used for expression of functional chimeras described above. The level of FUS1-LacZ induction in MMY9 cells expressing the Gpa1/Gα16 chimera was determined by preparing cell extracts, and incubating them with the LacZ substrate o-Nitrophenyl β-D-galactopyranoside (ONPG; see Materials and Methods). Gpa1/Gα16 reduced FUS1-LacZ expression resulting in β-galactosidase activity of 79+/−8 units (Table 2). This level was intermediate between the activity of control cells transformed with vector (239+/−30 units), in which the pathway is constitutively activated due to the absence of Gα, and the basal activity in cells producing wild-type Gpa1p (19+/−4 units).

T1 sequence (P41231 whole entry): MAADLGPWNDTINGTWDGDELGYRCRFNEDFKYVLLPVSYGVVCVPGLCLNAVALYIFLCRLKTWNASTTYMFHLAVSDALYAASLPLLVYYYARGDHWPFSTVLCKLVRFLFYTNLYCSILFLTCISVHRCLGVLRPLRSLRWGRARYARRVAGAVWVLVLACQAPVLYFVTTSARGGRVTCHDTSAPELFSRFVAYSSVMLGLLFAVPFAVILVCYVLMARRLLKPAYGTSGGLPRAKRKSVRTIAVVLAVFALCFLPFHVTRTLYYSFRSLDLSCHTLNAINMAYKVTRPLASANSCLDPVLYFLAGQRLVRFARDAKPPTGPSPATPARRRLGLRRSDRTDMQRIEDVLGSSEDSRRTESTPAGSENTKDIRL

B1: Gpa1p: endogenous yeast Gα subunit, product of the GPA1 gene (protein, UniProt P08539 2-472, looked up)
Guanine nucleotide-binding …: GCTVSTQTIGDESDPFLQNKRANDVIEQSLQLEKQRDKNEIKLLLLGAGESGKSTVLKQLKLLHQGGFSHQERLQYAQVIWADAIQSMKILIIQARKLGIQLDCDDPINNKDLFACKRILLKAKALDYINASVAGGSDFLNDYVLKYSERYETRRRVQSTGRAKAAFDEDGNISNVKSDTDRDAETVTQNEDADRNNSSRINLQDICKDLNQEGDDQMFVRKTSREIQGQNRRNLIHEDIAKAIKQLWNNDKGIKQCFARSNEFQLEGSAAYYFDNIEKFASPNYVCTDEDILKGRIKTTGITETEFNIGSSKFKVLDAGGQRSERKKWIHCFEGITAVLFVLAMSEYDQMLFEDERVNRMHESIMLFDTLLNSKWFKDTPFILFLNKIDLFEEKVKSMPIRKYFPDYQGRVGDAEAGLKYFEKIFLSLNKTNKPIYVKRTCATDTQTMKFVLSAVTDLIIQQNLKKIGII
How did the “FUS1-LacZ Activity, 1 μM α-factor” value [1] turn out when B1 was run?
Its value is 27.2 ± 1.7 light units (×10^6 cps).

And the “FUS1-LacZ Activity, No α-factor” value [1]?
Its value is 0.73 ± 0.25 light units (×10^6 cps).

What about the “agonist-dependent activation of FUS1-HIS3 (halo of cell growth)” value [2] of the same molecule?
The value was “responded to the agonist UTP”.

And the “β-galactosidase activity (FUS1-LacZ), No Alpha Factor” value [3]?
The value was 19+/−4 units.

And the “β-galactosidase activity (FUS1-LacZ), Plus Alpha Factor” value [3]?
The value was 273 +/− 49 units.

And the “β-galactosidase activity (FUS1-LacZ), No Alpha Factor” value ([3]; listed as GPA1)?
The value was 19 +/− 4 units.
